According to IntAct's records for PubMed 18923418:

B1: Ras GTPase-activating-like protein IQG1 (Candida albicans (strain SC5314 / ATCC MYA-2876)), Q5AH02 (parent)
chain: MAIGNIAARYLSSLEETDTTATTTTTTTSNVLQPSNRLNSPTKFNRKSLDNNSQDLDALARALNITPSKPETPTSISKGSATSLLRTKFESPSATVSSFKSTSSSNGVSPTKKNHFVEITSDETPSWANKNYKDILNKSPTKFNTQSNVHTPLKQLNQPIGTPSSSSLSPAKNASKSSPGYEYLCRIEAIKQWLESVLQEQITQSASQLISYIRNGIHLAKLANVVLPTSKPVFLNDSKLQFKHTENINRFFQLLDFFNMPDLFRFELTDLYDAKNVPKVWFCLHALSYILHKQDPSYPAMNNLVGKVDFSADDIRTANRALVNSPLPNFSSADTGEGKSDTSNNNSSTTSATAAFMDKVTSPVKKTPSPLKRPQQLQKKQLELVEDNKPELTQDSSGLSKISRDDPFTDRVDLAPPSTSNAKLELHTPPSKSLEFKIKSPIIDLSHRDSDYYTPELESHLPNIIKFQSLARGAVFRYLMFVDRILLKSYQDEFTNLFAIIRGNKARRKTVHKHRDELRLYSFEIIELQSIIRKNFVINKKPNFTSITNDVETVELQSLIRGKLTRDWKKYVTNGLEKFTPQIIDFQSLVRMKSIYSKSNKVISYKDEILPSLIELQSIARSQLYHRFSRSNAIDETEIIKIQSIIRRNAVIEDLYTKLSKVRSNKRRLIELQSIARGGVARTKLCNSVLVTLIYEDGILNQLFAKIRGDNYRKKFNSQKSELLKYEKSSIIPVQTLFRGVLSRYTKEVTLSDIFDQIDSVITLQSVARGKLMRGSIYEFSDYYQKHIKQVVKAQAILQRVFAQNAYKQLITSKNPPLKVIRRFAPLLSNNDRDFQDEMTLSDLKDLIIEKCKANEEYENQIEQLDMKLGLLDKNKISIEEFLKPTKGKTFKPIVENVKNLERLNKSLKKKIELWQTLFYFIQTNPIYLTKLFNSIPYTKNQTKSGQDLFQSVIQLFPVRDSSITYHSREEYFLVKLMIQLMQNDTANSNNLGDITKLHLTNWIDFFTNFNNHTFQRQHLKALLGKFVIRIVDNEQVDFESDPIRIYNQIIDHEMKVYGRSEKSRDISPQAAIQLPEVSNKFVGNLMSLRETCSDLLSMLQKNASGNKALLQIPDHVKLICRQGYLCAQRKFPDKSDQQHLAVAGVIFVKHYLGSILQVPENYGILTGNNDTQKAKSKDNLRYLYRVMLQLFSMKPFNDNFLKPLNEYIMASTDTVKSIISQAIINVGEIETVYELHDYDDLVTHQRPKLTISVNSLIQLEKSILQNVDIITTGNDDQLYKTCVEVEKLLISPQDMLTLTDLSSVTLNLNPTTQEESIVDSKTKTLFTQAKRCLLYIIRVQEEDDSDDLLELLISGIKPSHEQRFKEIVQYEKAEQDISLNNSKSVTANTVNKKKSTRPYSGTSLGDLSNLTYHELKKMCLEIILKLESMGELTRKNSFQTLLNQIAMDIKTKDSQRQCRWQQLQVSQKTIKKLSEKENYLKTQLHNYKKHVESVLLELQSKSKSNDKNWKRRLFNIMVIPVFSKQYFYHRELRKHNRLPKFGSYKYSAKKLIDQKVLIDFSTANNVATASKLDFMFSCHQVGKFTIEVASGTVNIPGATNTITLDELLALQYENKTKFELFDGMATFDSNNFMGLIFRKFYDLKKE
partner: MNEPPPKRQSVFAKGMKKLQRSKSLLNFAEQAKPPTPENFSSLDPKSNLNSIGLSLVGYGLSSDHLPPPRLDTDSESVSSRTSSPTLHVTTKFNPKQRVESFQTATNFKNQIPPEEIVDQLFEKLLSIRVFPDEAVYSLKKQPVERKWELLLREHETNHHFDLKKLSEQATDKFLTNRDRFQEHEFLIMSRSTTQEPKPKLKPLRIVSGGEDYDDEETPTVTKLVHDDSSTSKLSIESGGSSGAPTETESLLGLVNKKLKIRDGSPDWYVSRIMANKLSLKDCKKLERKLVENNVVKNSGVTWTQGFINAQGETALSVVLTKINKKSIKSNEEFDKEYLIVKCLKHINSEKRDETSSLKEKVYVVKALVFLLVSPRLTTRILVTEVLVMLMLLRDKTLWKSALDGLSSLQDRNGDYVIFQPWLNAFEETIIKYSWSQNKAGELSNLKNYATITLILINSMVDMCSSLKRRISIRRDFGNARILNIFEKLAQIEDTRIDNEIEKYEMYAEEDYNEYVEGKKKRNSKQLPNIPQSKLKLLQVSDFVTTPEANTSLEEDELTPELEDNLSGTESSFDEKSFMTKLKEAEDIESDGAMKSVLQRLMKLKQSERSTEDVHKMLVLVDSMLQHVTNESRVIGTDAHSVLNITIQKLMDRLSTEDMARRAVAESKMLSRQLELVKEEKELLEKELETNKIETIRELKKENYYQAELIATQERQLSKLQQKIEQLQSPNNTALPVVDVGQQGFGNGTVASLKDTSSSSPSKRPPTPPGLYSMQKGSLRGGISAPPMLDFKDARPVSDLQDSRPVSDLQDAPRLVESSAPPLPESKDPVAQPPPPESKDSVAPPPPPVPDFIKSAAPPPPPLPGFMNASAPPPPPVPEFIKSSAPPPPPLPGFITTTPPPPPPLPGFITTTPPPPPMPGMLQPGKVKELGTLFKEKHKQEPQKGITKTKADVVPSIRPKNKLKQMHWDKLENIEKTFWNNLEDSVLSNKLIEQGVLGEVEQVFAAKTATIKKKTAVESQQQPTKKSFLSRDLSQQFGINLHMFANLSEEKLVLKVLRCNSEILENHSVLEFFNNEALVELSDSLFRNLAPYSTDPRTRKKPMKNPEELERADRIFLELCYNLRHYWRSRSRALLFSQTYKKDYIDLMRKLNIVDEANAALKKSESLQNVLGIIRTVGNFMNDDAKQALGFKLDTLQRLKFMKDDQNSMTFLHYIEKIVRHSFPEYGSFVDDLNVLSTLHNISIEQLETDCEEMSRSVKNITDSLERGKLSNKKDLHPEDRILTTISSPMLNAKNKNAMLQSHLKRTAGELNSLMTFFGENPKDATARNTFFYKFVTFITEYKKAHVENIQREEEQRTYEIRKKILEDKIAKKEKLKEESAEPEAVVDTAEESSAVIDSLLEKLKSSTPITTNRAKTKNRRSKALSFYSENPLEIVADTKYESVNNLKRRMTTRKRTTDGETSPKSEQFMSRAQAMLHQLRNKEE
B2: Ras GTPase-activating-like protein IQG1 (Candida albicans (strain SC5314 / ATCC MYA-2876)), Q5AH02 (parent)
chain: B1 chain

Variants of: B1
Conditions: with bnr1_canal BNR1, Q5AAF4

Variant	effect of a mutation on the interaction
E15A	disrupting interaction

Variants of: B2
Conditions: with bni1_canal BNI1, Q5AL52
bni1_canal BNI1, Q5AL52, sequence (Q5AL52 whole entry): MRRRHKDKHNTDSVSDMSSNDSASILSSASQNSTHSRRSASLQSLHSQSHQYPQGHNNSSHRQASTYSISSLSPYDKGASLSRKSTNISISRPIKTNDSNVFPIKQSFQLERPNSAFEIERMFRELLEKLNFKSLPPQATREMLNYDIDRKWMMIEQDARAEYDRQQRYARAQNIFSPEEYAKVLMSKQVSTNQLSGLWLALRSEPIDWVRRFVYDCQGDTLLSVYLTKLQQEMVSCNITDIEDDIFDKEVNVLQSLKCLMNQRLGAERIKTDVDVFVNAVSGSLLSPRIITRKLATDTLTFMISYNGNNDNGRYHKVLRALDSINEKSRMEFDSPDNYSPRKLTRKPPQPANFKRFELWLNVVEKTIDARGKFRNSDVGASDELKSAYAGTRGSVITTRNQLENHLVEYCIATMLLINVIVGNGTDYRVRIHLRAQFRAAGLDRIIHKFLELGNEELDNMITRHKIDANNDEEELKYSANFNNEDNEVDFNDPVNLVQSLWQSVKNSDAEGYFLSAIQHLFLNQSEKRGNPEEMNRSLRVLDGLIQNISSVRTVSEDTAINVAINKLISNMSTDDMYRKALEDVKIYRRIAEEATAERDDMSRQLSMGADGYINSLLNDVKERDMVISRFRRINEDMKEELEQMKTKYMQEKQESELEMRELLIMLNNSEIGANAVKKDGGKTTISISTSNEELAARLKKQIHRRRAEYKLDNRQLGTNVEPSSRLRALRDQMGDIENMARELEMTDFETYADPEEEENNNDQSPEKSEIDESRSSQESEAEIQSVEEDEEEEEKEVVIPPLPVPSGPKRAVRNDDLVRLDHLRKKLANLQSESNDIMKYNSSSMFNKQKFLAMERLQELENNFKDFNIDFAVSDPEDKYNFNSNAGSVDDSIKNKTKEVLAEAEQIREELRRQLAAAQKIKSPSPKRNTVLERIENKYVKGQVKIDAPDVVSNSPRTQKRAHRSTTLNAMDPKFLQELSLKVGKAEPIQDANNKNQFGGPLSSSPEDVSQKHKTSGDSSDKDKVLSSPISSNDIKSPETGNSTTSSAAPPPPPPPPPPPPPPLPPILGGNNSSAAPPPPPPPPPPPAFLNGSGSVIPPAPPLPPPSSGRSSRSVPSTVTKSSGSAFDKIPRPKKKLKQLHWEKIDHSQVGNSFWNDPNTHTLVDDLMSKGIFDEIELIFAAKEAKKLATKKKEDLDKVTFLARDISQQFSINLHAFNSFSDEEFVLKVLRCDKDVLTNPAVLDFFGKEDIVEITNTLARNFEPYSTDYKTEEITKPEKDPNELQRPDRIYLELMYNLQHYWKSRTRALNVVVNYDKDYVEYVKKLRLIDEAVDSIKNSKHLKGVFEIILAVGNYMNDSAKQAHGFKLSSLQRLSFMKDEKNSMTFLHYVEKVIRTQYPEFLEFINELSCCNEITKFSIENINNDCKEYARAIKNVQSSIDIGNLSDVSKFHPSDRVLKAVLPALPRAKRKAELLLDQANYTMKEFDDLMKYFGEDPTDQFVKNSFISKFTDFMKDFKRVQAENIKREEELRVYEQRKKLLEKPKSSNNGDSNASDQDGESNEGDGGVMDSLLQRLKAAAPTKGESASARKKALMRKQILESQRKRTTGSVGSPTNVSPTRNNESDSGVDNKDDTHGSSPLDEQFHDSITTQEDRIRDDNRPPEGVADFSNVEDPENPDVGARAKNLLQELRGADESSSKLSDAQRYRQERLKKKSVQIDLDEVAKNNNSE

Variant	effect of a mutation on the interaction
E15A	disrupting interaction
